According to publication PMC12045373:

Target: human c-type lysozyme purified from human neutrophils (HL) (human) (UniProt P61626)
Chain of UniProt P61626 (P61626 19-148): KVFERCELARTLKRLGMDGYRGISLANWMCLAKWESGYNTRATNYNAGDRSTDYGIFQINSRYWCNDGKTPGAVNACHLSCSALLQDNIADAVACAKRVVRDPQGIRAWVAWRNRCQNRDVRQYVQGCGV

recombinant, mature Neisseria gonorrhoeae Adhesin Complex Protein (rACP) (natural protein)
percent of HL hydrolytic activity restored in the presence of rACP by pooled terminal RO serum (polyclonal) of mice immunized with rACP alone: 19.3%
percent of HL hydrolytic activity restored in the presence of rACP by pooled terminal RO serum (polyclonal) of mice immunized with rACP+CpG: 59.9%
percent of HL hydrolytic activity restored in the presence of rACP by pooled terminal SV serum (polyclonal) of mice immunized with rACP alone: 30.1%
percent of HL hydrolytic activity restored in the presence of rACP by pooled terminal SV serum (polyclonal) of mice immunized with rACP+CpG: 75.2%
